1 molecule from patent US20030165527A1 (published 2003) can be followed below.

The test has as its target T1, collagen type I from calf skin (Boehringer) (calf, UniProt P02453 162-1217; P02465 80-1117).
T1 construct: Bought preparation coated on microtiter wells
As to the kind of experiment: not described; control for the collagen-Fn inhibition ELISA.

T1 sequence (P02453 162-1217 limits assumed, chain 1 of 2): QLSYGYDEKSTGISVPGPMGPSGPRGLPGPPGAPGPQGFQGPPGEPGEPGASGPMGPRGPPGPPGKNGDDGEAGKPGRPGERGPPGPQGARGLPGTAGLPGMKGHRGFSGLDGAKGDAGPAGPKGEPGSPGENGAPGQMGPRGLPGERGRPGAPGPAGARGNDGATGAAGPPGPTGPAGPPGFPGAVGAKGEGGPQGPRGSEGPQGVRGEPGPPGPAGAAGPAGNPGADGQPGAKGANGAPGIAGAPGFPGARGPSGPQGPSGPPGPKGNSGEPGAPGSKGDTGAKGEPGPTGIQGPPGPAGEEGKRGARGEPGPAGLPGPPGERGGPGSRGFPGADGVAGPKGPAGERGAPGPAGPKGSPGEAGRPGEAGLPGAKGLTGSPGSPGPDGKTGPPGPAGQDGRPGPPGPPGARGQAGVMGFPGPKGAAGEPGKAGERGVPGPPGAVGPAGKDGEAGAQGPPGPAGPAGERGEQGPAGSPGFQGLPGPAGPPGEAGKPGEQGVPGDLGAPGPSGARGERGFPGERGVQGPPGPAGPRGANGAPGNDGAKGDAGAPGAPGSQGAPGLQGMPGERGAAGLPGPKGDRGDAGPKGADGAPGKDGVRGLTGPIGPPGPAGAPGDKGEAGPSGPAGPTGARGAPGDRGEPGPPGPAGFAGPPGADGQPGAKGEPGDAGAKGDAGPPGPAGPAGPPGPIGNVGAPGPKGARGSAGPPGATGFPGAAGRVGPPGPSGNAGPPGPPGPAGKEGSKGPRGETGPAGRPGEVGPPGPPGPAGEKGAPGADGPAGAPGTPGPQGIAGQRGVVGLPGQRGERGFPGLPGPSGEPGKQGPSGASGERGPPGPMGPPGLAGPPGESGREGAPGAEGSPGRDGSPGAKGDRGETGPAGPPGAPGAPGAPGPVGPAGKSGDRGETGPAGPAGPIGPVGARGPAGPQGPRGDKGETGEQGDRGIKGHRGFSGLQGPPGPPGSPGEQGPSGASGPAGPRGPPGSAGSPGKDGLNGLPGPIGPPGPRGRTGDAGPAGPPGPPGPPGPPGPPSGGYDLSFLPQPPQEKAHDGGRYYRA
T1 sequence (P02465 80-1117 limits assumed, chain 2 of 2): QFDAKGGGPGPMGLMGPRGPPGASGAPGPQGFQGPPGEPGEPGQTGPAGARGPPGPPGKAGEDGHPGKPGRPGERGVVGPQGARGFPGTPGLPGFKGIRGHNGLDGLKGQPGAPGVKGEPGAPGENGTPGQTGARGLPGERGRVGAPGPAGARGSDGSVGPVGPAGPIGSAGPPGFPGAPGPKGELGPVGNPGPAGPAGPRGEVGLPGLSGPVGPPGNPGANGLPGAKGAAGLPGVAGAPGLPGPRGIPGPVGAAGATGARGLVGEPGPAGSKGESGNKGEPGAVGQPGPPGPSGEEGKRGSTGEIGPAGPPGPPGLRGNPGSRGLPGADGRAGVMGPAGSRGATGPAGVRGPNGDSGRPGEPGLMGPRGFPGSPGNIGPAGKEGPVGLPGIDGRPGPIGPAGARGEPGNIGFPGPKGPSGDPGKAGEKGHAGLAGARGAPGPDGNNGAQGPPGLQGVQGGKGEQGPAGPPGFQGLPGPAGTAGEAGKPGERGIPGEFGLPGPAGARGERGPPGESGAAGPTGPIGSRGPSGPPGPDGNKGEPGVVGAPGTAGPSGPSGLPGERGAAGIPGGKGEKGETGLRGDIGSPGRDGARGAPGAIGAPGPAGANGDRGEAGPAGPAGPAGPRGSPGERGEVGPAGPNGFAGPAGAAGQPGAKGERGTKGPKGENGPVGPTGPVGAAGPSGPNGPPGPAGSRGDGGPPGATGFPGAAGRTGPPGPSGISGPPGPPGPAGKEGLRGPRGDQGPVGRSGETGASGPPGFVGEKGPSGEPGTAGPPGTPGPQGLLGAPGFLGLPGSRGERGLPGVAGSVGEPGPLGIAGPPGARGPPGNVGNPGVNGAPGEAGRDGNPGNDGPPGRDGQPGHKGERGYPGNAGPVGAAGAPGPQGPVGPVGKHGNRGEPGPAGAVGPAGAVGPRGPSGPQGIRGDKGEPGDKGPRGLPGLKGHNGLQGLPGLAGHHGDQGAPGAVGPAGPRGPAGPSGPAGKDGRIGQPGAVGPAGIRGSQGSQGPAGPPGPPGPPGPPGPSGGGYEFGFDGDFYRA

B1: recombinant fusion protein SFS-E (mature protein SFS of Streptococcus equi subsp. equi Bd 3221 with E-tag) (other)
chain: GAALVFGGLLGSLGGSSHQARPKEQPVSSIGDDDKSHKSSSDQPTNHQHQATSPSQPTAKSSGHHGNQPQSLSVNSQGNSSGQASEPQAIPNQHHQPQGKPQHLDLGKDNSSPQPQPKPQGNSPKLPEKGLNGENQKEPEQGERGLPGLNGENQKEPEQGERGEAGPPSTPNLEGNNRKNPLKGLDGENKPKEDLDGYNHGRRDGYRVGYEDGYGGKKHKGDYPKRFDESSPKEYNDYSQGYNDNYGNGNPD
notes: PCR fragment encoding the mature SFS was cloned into pG8SAET and purified from the periplasm on an anti-E tag column; both are treated as one molecule; also called recombinant protein SFS; not shown: 13 amino acid peptide tag (E-tag) encoded by vector pG8SAET
With B1, the binding result was “no binding”.
